Assay results: PMC2994726 (PLoS ONE, 2010)

Columns and labels:
Assay in all cases: radioligand binding; whole-cell heterologous competition on transfected COS-7 cells: 1 nM 3H-Ang II tracer and increasing unlabeled SII Ang II, 3 h at 4°C; pKi calculated from Ang II KD values of experiments run in parallel
Conditions in all cases: one partner purified
[1] = target: T1, FLAG-tagged rat AT1a receptor D74N truncated after serine 331 (D74N 331Δ) (rat, UniProt P25095 1-331, D74N)
T1 construct: source: COS-7, transiently transfected, on whole cells; not shown: FLAG, N-terminal, kept
T1 sequence (looked up): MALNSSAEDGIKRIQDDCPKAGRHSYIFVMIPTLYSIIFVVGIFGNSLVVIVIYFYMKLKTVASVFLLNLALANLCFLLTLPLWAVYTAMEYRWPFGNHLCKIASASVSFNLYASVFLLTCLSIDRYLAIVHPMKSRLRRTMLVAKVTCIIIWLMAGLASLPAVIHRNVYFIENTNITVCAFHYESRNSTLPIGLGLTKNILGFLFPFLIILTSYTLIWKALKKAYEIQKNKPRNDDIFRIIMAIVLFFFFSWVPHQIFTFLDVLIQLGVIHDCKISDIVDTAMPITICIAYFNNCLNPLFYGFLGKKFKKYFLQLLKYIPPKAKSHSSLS

[2] = target: T2, FLAG-tagged rat AT1a receptor N298A truncated after serine 331 (N298A 331Δ) (rat, UniProt P25095 1-331, N298A)
T2 construct: source: COS-7, transiently transfected, on whole cells; not shown: FLAG, N-terminal, kept
T2 sequence (looked up): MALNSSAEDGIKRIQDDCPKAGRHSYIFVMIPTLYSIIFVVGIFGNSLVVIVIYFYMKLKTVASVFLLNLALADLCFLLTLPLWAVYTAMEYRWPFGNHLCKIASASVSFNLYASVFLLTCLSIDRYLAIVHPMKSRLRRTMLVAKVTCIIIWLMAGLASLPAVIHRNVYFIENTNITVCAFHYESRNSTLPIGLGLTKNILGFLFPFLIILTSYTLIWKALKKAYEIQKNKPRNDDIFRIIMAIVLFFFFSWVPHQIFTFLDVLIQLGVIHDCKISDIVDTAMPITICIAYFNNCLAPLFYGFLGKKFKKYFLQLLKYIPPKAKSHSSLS

[3] = target: T3, FLAG-tagged rat AT1a receptor D74N, full length (rat, UniProt P25095 1-359, D74N)
T3 construct: Angiotensin II type 1a receptor (AT1aR), rat, full length; also called D74N (2.50); source: COS-7, transiently transfected, on whole cells; not shown: FLAG, N-terminal, kept
T3 sequence (looked up): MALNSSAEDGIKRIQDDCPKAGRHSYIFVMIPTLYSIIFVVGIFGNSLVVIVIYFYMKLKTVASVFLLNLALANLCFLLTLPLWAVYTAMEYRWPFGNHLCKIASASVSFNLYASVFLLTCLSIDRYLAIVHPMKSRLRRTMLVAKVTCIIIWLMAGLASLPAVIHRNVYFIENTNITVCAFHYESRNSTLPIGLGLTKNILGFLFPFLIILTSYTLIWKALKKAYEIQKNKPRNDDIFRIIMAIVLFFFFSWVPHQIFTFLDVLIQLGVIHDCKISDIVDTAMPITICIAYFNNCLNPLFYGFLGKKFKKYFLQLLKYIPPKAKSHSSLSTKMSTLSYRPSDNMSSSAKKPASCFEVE

[4] = target: T4, FLAG-tagged rat AT1a receptor N298A, full length (rat, UniProt P25095 1-359, N298A)
T4 construct: Angiotensin II type 1a receptor (AT1aR), rat, full length; also called N298A (7.49); source: COS-7, transiently transfected, on whole cells; not shown: FLAG, N-terminal, kept
T4 sequence (looked up): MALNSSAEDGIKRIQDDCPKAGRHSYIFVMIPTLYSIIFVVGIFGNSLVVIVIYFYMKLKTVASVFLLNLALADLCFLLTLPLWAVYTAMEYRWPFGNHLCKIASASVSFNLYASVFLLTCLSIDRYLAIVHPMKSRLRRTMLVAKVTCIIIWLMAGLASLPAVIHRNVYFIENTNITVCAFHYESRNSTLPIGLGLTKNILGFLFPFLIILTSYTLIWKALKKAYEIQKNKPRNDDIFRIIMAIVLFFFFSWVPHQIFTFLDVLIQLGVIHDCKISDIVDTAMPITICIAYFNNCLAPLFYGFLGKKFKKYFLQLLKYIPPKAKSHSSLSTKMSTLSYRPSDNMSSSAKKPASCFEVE

Which pKi [1] does the source give for GRVIIHPI (sarcosine at position 1 (Sar1)) [Sar1-Ile4-Ile8 (SII) Ang II] here?
The pKi was 6.8.

And the pKi [2]?
The pKi was 6.2.

And the pKi [3]?
Its pKi is 6.6.

And the pKi [4]?
The pKi was 6.2.
